# Test results taken from the RNAGym collection of RNA variant scans (doi:10.1073/pnas.2313332121).
# This sample holds only a part of the variants without activity.
# B1: TPR 5TU (parent)
# chain: GGAUCUUCUCGAUCUAACAAAAAAGACAAAUCUGCCACAAAGCUUGAGAGCAUCUUCGGAUGCAGAGGCGGCAGCCUUCGGUGGCGCGAUAGCGCCAACGUUCUCAACUAUGACACGCAAAACGCGUGCUCCGUUGAAUGGAGUUUAUCAUG
# Variants of: B1
# Assay: polymerase ribozyme fitness, log enrichment relative to wild type (log ratio); higher = more active; in vitro selection for triplet polymerase activity
# Method in brief: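 Mutant libraries were PCR-built and transcribed for each subunit of a heterodimeric triplet polymerase ribozyme and selected for one round in triplicate at −7 °C, frozen, before gel excision of extended constructs and streptavidin-bead capture. Input and output libraries were Illumina-sequenced, keeping genotypes with ≥10 input reads and ≥1 read per output. Fitness is a logarithmic ratio of genotype to wild-type enrichment, in base 2, using inverse-variance-weighted replicate averages.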
row,Variant,polymerase ribozyme fitness (log ratio)
1,C75A C129G U146C,≤ -4.2
2,C75G G88A A98U C103U,≤ -4.2
3,G74A U90C G94A A98U,≤ -4.2
4,A73U G81A A122U,-0.858
5,C76U C105U C116G,-1.03
6,G74U C87A C116A U151G,≤ -4.2
7,C76U A147U,0.639
8,C75U C96U,-0.743
9,C76A C85A C95A A120G,-2.33
10,U78A C105U A115U,≤ -4.2
11,C76U G128U,-3.27
12,C76A G86A A89U G133C U145G,≤ -4.2
13,U77A A91G G94A,≤ -4.2
14,A73U U144C,-1.49
15,C76U A89C C118G,-1.8
16,U78C U82G U102G,-3.57
17,C76A G84U A121G A122G U146A,-3.68
18,A73U C96G A98U A120U A137G,-2.92
19,C76A A137U,-3.9
20,C76G U77C G133U,≤ -4.2
21,C76U U104G A106U G128U U151G,≤ -4.2

row,Variant,polymerase ribozyme fitness (log ratio)
1,C75G C93A C108G C132A G140A G143A,-4.12
2,C75U G94C,0.488
3,U77A A113U,≤ -4.2
4,C76U U78C A137G,-2.11
5,C75A A137C A150U,≤ -4.2
6,G74U G83C G94C,≤ -4.2
7,C76U A119C,-0.584
8,C76U A119U,-0.561
9,G74A A106U A107U G133U,-3.93
10,C76A C96A A122C C123A,-1.55
11,U78C G83C G126A,-0.883
12,C75G C85A C103U A107G A122C,≤ -4.2
13,C75U C95U,0.131
14,C75G G141C,-4.12
15,G74C U130A,≤ -4.2
16,C79G C85U,-4.04
17,C75G C76G G92C,≤ -4.2
18,C75A G80C C96G C99A G117A,≤ -4.2
19,C76U C85G C125U U139G,≤ -4.2
20,U77C C114U,≤ -4.2
21,C75U,-0.0565

row,Variant,polymerase ribozyme fitness (log ratio)
1,C75A,-3.85
2,C75G,-3.24
3,C76A G83U C99U A122U,≤ -4.2
4,G74C C79G U82A C93U C108U,≤ -4.2
5,C75U G80A C85A U146C,-3.11
6,G74C C99U,≤ -4.2
7,C79G C87U,-3.7
8,C75U G83C A138U A142G,≤ -4.2
9,C76G C85U U139C,≤ -4.2
10,C76A G92U,-2.07
11,G74C G80C G92U C103G A106U,≤ -4.2
12,C76G C87A U144C G152A,≤ -4.2
13,U78G G86C U102G C108U A119U G140U,≤ -4.2
14,C75G C87U,-3.2
15,C76G G80U U82A G86U U104C G141C,≤ -4.2
16,C75G G81A A122G,≤ -4.2
17,G74A A91C A147U U148C,≤ -4.2
18,C76A A142C,-2.3
19,C76U G84U A113U A122U,-3.77
20,A73U U148C G152C,≤ -4.2
21,C76A A97U,-1.06

row,Variant,polymerase ribozyme fitness (log ratio)
1,C75A G86A U104G A106G,≤ -4.2
2,C76G C93A C96A G136C,≤ -4.2
3,C76A C87U U139G U144A,-2.07
4,U77C G81A G86U G100A G133U,≤ -4.2
5,C79A,-4.12
6,C79G,-3.75
7,C76A C95U C96A A97G C114U A137C,≤ -4.2
8,C79A U90A G133U G143C,≤ -4.2
9,C79A G141C,-3.95
10,C79G A122U,-3.58
11,C76U C79U C85A G92C C132G,≤ -4.2
12,C75U G84A U135A,-0.996
13,C76U G83A,-0.0654
14,C76U U77G A147G,≤ -4.2
15,C75G U82G C87U C131G U134A,≤ -4.2
16,C76U G83C U134A A142U,≤ -4.2
17,C76A G94C,-0.703
18,A73U C79G A107U A113C,≤ -4.2
19,C75G G86U C95U C99U,≤ -4.2
20,U78A C87U A91G A98C A120C U130G G141A,≤ -4.2
